Experimental data taken from patent publication US20080102476A1, “Analyzing Histamine H4 Receptor-Mediated Effects In Whole Blood” (priority 2003, published 2008).
Blank lines part the entries; values can stand above or below the molecule they belong to.

Key:
[1] = test system: eosinophils in human whole blood; assay: Whole blood eosinophil shape change GAFS assay (Example 1A); type: cell-based
Experimental: Starting materials were obtained as described in the experiments above. Human whole blood samples were used to study eosinophil shape change response. Human blood samples collected from healthy donors were treated with 3.8% tri-sodium citrate as anti-coagulator (or other anti-coagulators) and centrifuges at 300 rpm. The samples were used for experiments within 1 hour. Aliquots of 80 μl whole blood were pretreated with histamine receptor analogues (such as H1 receptor antagonist diphenhydramine, H2 antagonist ranitidine, H4 receptor antagonists thioperamide and Compound A, and H3 receptor antagonist Compound B) for 10 minutes before addition of histamine or chemokines in 1.2-ml polypropylene cluster tubes (Costar, Cambridge, Mass.) in a final volume of 100 μl. The tubes were placed in a 37° C. water bath for 10 min, after which they were transferred to an ice-water bath, and 250 μl of ice-cold fixative (2% paraformaldehyde in PBS or other fixatives) was added to terminate the reaction and to maintain the cell shape change. Red cells were lysed with 3 ml Qiagen lysis solution (Qiagen, Valencia, Calif.) for 10 minutes at 4° C. Leukocytes were recovered by centrifugation at 2000 rpm for 5 minutes, washed once with either PBS containing 10 mM Ca^2+ and Mg^2+, 10 mM HEPES, 10 mM glucose, and 0.1% BSA (for FIGS. 10 and 11) or PBS containing 0.5% BSA and 2 mM EDTA (for other figures), and then resuspended in the same buffer. The cell shape change was analyzed on a FACScan flow cytometer (Becton Dickinson, Mountain View, Calif.). Eosinophils were gated based on their high autofluorescence relative to neutrophils and shape change was monitored in forward scatter signals. Data were acquired for 1500 high-fluorescence eosinophil events. The results are expressed as the percentage increase in FSC compared to unstimulated cells. Results obtained are provided in the Tables I and II, below, which also correspond to FIG. 7 and FIG. 8, respectively.

[2] = test system: human eosinophils; assay: Eosinophil shape change in human PMNL by flow cytometry (GAFS assay); type: cell-based; conditions: for EC50: human PMNL, chemokines, FIG. 3D
Experimental: PMNL were prepared as described above and cells were resuspended in assay buffer (PBS containing 10 mM Ca^2+ and Mg^2+, 10 mM HEPES, 10 mM glucose, and 0.1% BSA, pH 7.2-7.4). Aliquots of cells (5×10^5 PMNL in 80 μl assay buffer) were pretreated with histamine receptor analogues (diphenhydramine, ranitidine, thioperamide, Compound A or H3 receptor antagonist) for 10 min at room temperature before addition of histamine or chemokines in 1.2-ml polypropylene cluster tubes (Costar, Cambridge, Mass.) in a final volume of 100 μl. The tubes were placed in a 37° C. water bath for 10 min (or as indicated), after which they were transferred to an ice-water bath, and 250 μl of ice-cold fixative (2% paraformaldehyde in PBS) was added to terminate the reaction and to maintain the cell shape change. […] Cell shape change was monitored in forward scatter signals. To identify eosinophils and neutrophils in PMNL, cells were stained on ice for 30 min with saturating concentrations of FITC-conjugated anti-CCR3 or anti-CD16 antibodies, which are specific for eosinophils or neutrophils, respectively. Samples after antibody staining were analyzed in flow cytometry.

[3] = test system: human eosinophils; assay: Cell surface expression of adhesion molecules on eosinophils by flow cytometry; type: cell-based; conditions: antagonist 10 μM
Experimental: Purified eosinophils were used to study cell surface expression of adhesion molecules. Eosinophils were resuspended in PBS containing 10 mM Ca^2+ and Mg^2+, 10 mM HEPES, 10 mM glucose, and 0.1% BSA, pH 7.2-7.4. Aliquots of cells (5×10^5 PMNL) were pretreated with histamine receptor analogues (as described above) for 10 min before addition of histamine or chemokines in 1.2-ml polypropylene cluster tubes (Costar, Cambridge, Mass.) in a final volume of 100 μl. The tubes were placed in a 37° C. water bath for 10 min (or as indicated), after which they were transferred to an ice-water bath, and 250 μl of ice-cold fixative (0.5% paraformaldehyde in PBS) was added. Samples were then incubated on ice for 30 min with saturating concentration of either FITC or phycoerytherine-conjugated anti-CD11a, anti-CD11b or anti-CD54 antibodies, washed, and then analyzed by flow cytometry.

[4] = test system: purified human eosinophils; assay: In vitro eosinophil chemotaxis assay (Transwell); type: cell-based; conditions: for EC50: Transwell, 2 h
Experimental: Transwells (Costar, Cambridge, Mass.) with 5 μm pore size were coated with 100 μl of 100 ng/ml human fibronectin (Sigma) for 2 h at room temperature. After removal of excess fibronectin, 600 μl of RPMI-1640 medium containing 0.5% BSA and different concentrations of histamine (0.01-100 μM) was added to the bottom chamber, Eosinophils (2×10^5/well) were added to the top chamber. Histamine receptor analogues (diphenhydramine, ranitidine, thioperamide, Compound A or Compound B) were added to both the top and bottom chambers to a final concentration of 10 μM or at other concentration as stated in figure legends. The plates were incubated for 2 h at 37° C. and the number of cells migrated to the bottom chamber was counted for 1 min using flow cytometer.

[5] = test system: human eosinophils; conditions: cited from earlier work

Molecule: N=C(N)SCCc1cnc[nH]1 [imetit]
- agonist effect on eosinophil shape change in whole blood ([1]; FIGS. 9A and 9B): mimic histamine in inducing eosinophil shape change
- agonist effect on eosinophil shape change ([2]; FIG. 4C): partial shape change

Molecule: S=C(NC1CCCCC1)N1CCC(c2cnc[nH]2)CC1 [thioperamide]
- effect on histamine-induced up-regulation of CD11b/CD18 and CD54 expression [3]: abolished
- IC50 ([4]; Homo sapiens, Eosinophil, 1 μM histamine in lower chamber, read-out: IC50 in blocking 1 μM histamine-induced eosinophil chemotaxis): 519 nM
- effect on histamine-induced eosinophil chemotaxis ([4]; antagonist 10 μM in both chambers): inhibited completely
- IC50 ([2]; Homo sapiens, Eosinophil, 1 μM histamine, FIG. 4B, read-out: IC50 in blocking 1 μM histamine-induced eosinophil shape change): 128 nM
- effect on histamine-induced eosinophil shape change ([2]; antagonist 10 μM, 1 μM histamine 10 min): blocked the histamine-induced eosinophil shape change completely
- effect on eosinophil chemotaxis toward histamine [5]: blocked

- EC50 [4]: 43 nM
- EC50 [2]: 0.202 nM
Molecule: MCP-3: chemokine purchased from R&D Systems

- EC50 [2]: 0.017 nM
Molecule: eotaxin: chemokine purchased from R&D Systems

- EC50 [4]: 1.9 nM
- EC50 [2]: 0.021 nM
B1: eotaxin-2: chemokine, positive control in the whole blood assay (protein, UniProt O00175 27-119, looked up)
C-C motif chemokine 24: VVIPSPCCMFFVSKRIPENRVVSYQLSSRSTCLKAGVIFTTKKGQQFCGDPKQEWVQRYMKNLDAKQKKASPRARAVAVKGPVQRYPGNQTTC
- % change (increase in FSC compared to unstimulated cells) ([1]; Eotaxin2 0.01 nM): 3.5%
- GeoMean (FSC of eosinophils) ([1]; Eotaxin2 0.01 nM): 233.4
- % change (increase in FSC compared to unstimulated cells) ([1]; Eotaxin2 0.1 nM): 1.0%
- GeoMean (FSC of eosinophils) ([1]; Eotaxin2 0.1 nM): 227.7
- % change (increase in FSC compared to unstimulated cells) ([1]; Eotaxin2 1 nM): 26.3%
- GeoMean (FSC of eosinophils) ([1]; Eotaxin2 1 nM): 284.7
- % change (increase in FSC compared to unstimulated cells) ([1]; Eotaxin2 10 nM): 53.4%
- GeoMean (FSC of eosinophils) ([1]; Eotaxin2 10 nM): 346.0
- % change (increase in FSC compared to unstimulated cells) ([1]; Eotaxin2 100 nM): 19.4%
- GeoMean (FSC of eosinophils) ([1]; Eotaxin2 100 nM): 269.3
